{"source": "paper PMC9440123", "about": "“Rtt105 regulates RPA function by configurationally stapling the flexible domains” (Nature Communications, 2022)", "key": {"[1]": {"biological_target": "T1, RPA (RPA70/RPA32/RPA14);Rtt105 (Saccharomyces cerevisiae;Saccharomyces …, UniProt P22336;P26754;P26755;P40063 1-621;1-273;1-122;1-208, |)", "T1 sequence (P22336 whole entry, chain 1 of 4)": "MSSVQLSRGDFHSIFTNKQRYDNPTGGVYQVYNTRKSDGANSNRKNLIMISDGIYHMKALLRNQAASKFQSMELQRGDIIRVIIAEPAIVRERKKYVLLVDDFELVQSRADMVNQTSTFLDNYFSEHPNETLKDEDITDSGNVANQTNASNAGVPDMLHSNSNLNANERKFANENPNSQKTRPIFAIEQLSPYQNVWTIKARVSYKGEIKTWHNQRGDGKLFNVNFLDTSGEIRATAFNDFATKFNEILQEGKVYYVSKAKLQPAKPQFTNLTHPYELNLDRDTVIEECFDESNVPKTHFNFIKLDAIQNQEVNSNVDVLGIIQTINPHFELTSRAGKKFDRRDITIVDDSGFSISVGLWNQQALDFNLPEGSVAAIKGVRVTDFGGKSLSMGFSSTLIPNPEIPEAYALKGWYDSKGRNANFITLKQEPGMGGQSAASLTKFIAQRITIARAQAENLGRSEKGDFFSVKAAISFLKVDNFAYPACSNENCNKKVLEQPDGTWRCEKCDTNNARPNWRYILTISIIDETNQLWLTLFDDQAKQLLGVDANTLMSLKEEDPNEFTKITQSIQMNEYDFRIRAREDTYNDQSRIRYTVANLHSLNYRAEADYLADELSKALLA", "T1 sequence (P26754 whole entry, chain 2 of 4)": "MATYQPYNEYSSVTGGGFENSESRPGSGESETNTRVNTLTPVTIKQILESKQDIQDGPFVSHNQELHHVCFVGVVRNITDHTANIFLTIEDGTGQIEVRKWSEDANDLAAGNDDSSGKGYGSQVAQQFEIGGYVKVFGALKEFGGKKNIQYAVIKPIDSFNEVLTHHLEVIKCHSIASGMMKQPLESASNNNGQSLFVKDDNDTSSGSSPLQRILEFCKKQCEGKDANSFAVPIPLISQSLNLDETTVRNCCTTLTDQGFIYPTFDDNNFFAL", "T1 sequence (P26755 whole entry, chain 3 of 4)": "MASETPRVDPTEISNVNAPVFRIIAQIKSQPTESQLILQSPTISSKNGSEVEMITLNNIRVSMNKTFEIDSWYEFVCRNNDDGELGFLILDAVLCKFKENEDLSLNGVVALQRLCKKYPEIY", "T1 sequence (P40063 whole entry, chain 4 of 4)": "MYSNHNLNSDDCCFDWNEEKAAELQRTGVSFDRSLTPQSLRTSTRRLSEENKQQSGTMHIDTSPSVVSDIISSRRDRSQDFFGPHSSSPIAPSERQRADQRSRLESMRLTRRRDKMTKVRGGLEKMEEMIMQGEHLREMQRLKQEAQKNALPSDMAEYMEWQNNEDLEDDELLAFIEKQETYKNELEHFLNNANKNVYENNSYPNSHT", "assay": "SEC; [RPA]2-(dT)70 without Rtt105, plus Rtt105-RPA-(dT)70; EMSA: 25 mM Tris-Cl pH 7.5, 200 mM NaCl, 5 mM MgCl2, 5% glycerol, 0.05% Tween-20, 25 C; anisotropy/FRET: 30 mM HEPES pH 7.8, 100 mM KCl, 6% glycerol, 5 mM MgCl2, 1 mM bME, 23 C (stopped flow 25 C)", "conditions": "protein: recombinant;recombinant; tags: ;; copies: 1;1;1;1"}, "[2]": {"biological_target": "T2, RPA-DBD-D-Cy3;Rtt105-Cy5 (C13S) (Saccharomyces cerevisiae;Saccharomyces …, UniProt P22336;P26754;P26755;P40063 1-621;1-273;1-122;1-208, |C13S)", "T2 sequence (P22336 whole entry, chain 1 of 4)": "as the sequence (P22336 whole entry, chain 1 of 4) above", "T2 sequence (P26754 whole entry, chain 2 of 4)": "as the sequence (P26754 whole entry, chain 2 of 4) above", "T2 sequence (P26755 whole entry, chain 3 of 4)": "as the sequence (P26755 whole entry, chain 3 of 4) above", "T2 sequence (P40063 whole entry C13S, chain 4 of 4)": "as the sequence (P40063 whole entry, chain 4 of 4) above, with C13S counted along it", "assay": "FRET titration; ssDNA-induced Rtt105 release from preformed RPA-Rtt105 (200 nM each); EMSA: 25 mM Tris-Cl pH 7.5, 200 mM NaCl, 5 mM MgCl2, 5% glycerol, 0.05% Tween-20, 25 C; anisotropy/FRET: 30 mM HEPES pH 7.8, 100 mM KCl, 6% glycerol, 5 mM MgCl2, 1 mM bME, 23 C (stopped flow 25 C)", "conditions": "protein: recombinant;recombinant; tags: Cy3 on DBD-D via 4AZP;Cy5 on Cys12; copies: 1;1;1;1"}, "[3]": {"biological_target": "T3, RPA (RPA70/RPA32/RPA14) (Saccharomyces cerevisiae, UniProt P22336;P26754;P26755 1-621;1-273;1-122)", "T3 sequence (P22336 whole entry, chain 1 of 3)": "as the sequence (P22336 whole entry, chain 1 of 4) above", "T3 sequence (P26754 whole entry, chain 2 of 3)": "as the sequence (P26754 whole entry, chain 2 of 4) above", "T3 sequence (P26755 whole entry, chain 3 of 3)": "as the sequence (P26755 whole entry, chain 3 of 4) above", "assay": "fluorescence anisotropy; ~2 RPA per DNA; EMSA: 25 mM Tris-Cl pH 7.5, 200 mM NaCl, 5 mM MgCl2, 5% glycerol, 0.05% Tween-20, 25 C; anisotropy/FRET: 30 mM HEPES pH 7.8, 100 mM KCl, 6% glycerol, 5 mM MgCl2, 1 mM bME, 23 C (stopped flow 25 C)", "conditions": "protein: recombinant; copies: 1;1;1"}, "[4]": {"biological_target": "T3, RPA (RPA70/RPA32/RPA14)", "assay": "fluorescence anisotropy; no Rtt105; 5 mM MgCl2; stoichiometric, apparent Kd; EMSA: 25 mM Tris-Cl pH 7.5, 200 mM NaCl, 5 mM MgCl2, 5% glycerol, 0.05% Tween-20, 25 C; anisotropy/FRET: 30 mM HEPES pH 7.8, 100 mM KCl, 6% glycerol, 5 mM MgCl2, 1 mM bME, 23 C (stopped flow 25 C)", "conditions": "protein: recombinant; copies: 1;1;1"}, "[5]": {"biological_target": "T1, RPA (RPA70/RPA32/RPA14);Rtt105", "assay": "fluorescence anisotropy; Rtt105 1:1; 5 mM MgCl2; stoichiometric, apparent Kd; EMSA: 25 mM Tris-Cl pH 7.5, 200 mM NaCl, 5 mM MgCl2, 5% glycerol, 0.05% Tween-20, 25 C; anisotropy/FRET: 30 mM HEPES pH 7.8, 100 mM KCl, 6% glycerol, 5 mM MgCl2, 1 mM bME, 23 C (stopped flow 25 C)", "conditions": "protein: recombinant;recombinant; tags: ;; copies: 1;1;1;1"}, "[6]": {"biological_target": "T2, RPA-DBD-D-Cy3;Rtt105-Cy5 (C13S)", "assay": "FRET titration; ssDNA-induced remodeling of preformed RPA-Rtt105 (200 nM each); EMSA: 25 mM Tris-Cl pH 7.5, 200 mM NaCl, 5 mM MgCl2, 5% glycerol, 0.05% Tween-20, 25 C; anisotropy/FRET: 30 mM HEPES pH 7.8, 100 mM KCl, 6% glycerol, 5 mM MgCl2, 1 mM bME, 23 C (stopped flow 25 C)", "conditions": "protein: recombinant;recombinant; tags: Cy3 on DBD-D via 4AZP;Cy5 on Cys12; copies: 1;1;1;1"}}, "data": [{"binder": "(dT)70 (ssDNA) DNA: TTTTTTTTTTTTTTTTTTTTTTTTTTTTTTTTTTTTTTTTTTTTTTTTTTTTTTTTTTTTTTTTTTTTTT", "values": [{"measurement": "binding result", "setting": "[1]", "value": "binds"}, {"measurement": "apparent K (half saturation)", "setting": "[2]", "value": "42.8 ± 0.37", "unit": "nM"}, {"measurement": "binding result", "setting": "[3]", "value": "binds"}]}, {"binder": "TTTTTTTTTTTTTTTTTTTTTTTTTTTTTTTTTTT (ssDNA)", "note": "[FAM-(dT)35]", "values": [{"measurement": "Kd", "setting": "[4]", "value": "4 ± 1.3", "unit": "nM"}, {"measurement": "Kd", "setting": "[5]", "value": "2.4 ± 1.2", "unit": "nM"}]}, {"binder": "TTTTTTTTTTTTTTTTTTTTTTTTTTTTTTTTTTT (ssDNA)", "note": "[(dT)35]", "values": [{"measurement": "apparent K (half saturation)", "setting": "[6]", "value": "130 ± 10.5", "unit": "nM"}]}]}
